Experimental data as given in patent publication US12479895B2, “C-terminal CDNF and MANF fragments, pharmaceutical compositions comprising same and uses thereof” (MyNeuroCure Oy, priority 2018, dated 2025).

Tests used:
[1] = system: SOD1-G93A mouse ALS model; test: SOD1-G93A mouse model of ALS; assay type: in vivo
Description: Transgenic SOD1 G93A mice served as a transgenic mouse model for ALS in this study. Transgenic mice containing various human SOD1 mutations develop progressive neurodegeneration and motoneuron (MN) death, providing an animal model that has been commonly used for preclinical trials and that has greatly contributed to the understanding of FALS pathogenesis (Gurney et al., 1994). […] In these mice hind limb weakness and tremulous movement appear as initial symptoms at 8-10 week of age, followed by major symptoms such as progressive motor paralysis and neurogenic amyotrophy (Shibata 2001). These mice subsequently show disability of gait, eating and drinking and die within some weeks, usually at 14-16 week of age. The transgenic mice carrying the human SOD1 with the glycine93 to alanine mutated were originally obtained from The Jackson Laboratory (http://www.jax.org), Bar Harbor, ME; Strain B6SJL-TgN (SOD1-G93A) 1Gur). Transgenic expression was analyzed by DNA tail tests and PCR, using specific oligonucleotides and conditions as done previously by others (see homepage Jackson Lab). In all the experiments the wild-type B6SJL-TgN (SOD1) 2Gur were included as controls.
In the single administration experiment, mice at around 13 weeks of age received a single intracerebroventricular injection of PBS or C-CDNF (3.75 μg that is equimolar to full-length CDNF 10 μg diluted in PBS) under isofluorane anesthesia. Mice were then evaluated for signs of disease and body weight changes twice a week. Evaluation was completed by a battery of behavioral tests designed to assess motor activity in the mice; the battery comprises tests e.g rotarod.
In the chronic infusion experiment, 12-week-old SOD1 mice were inserted a brain infusion cannula (connected via catheter-tubing to an Alzet osmotic minipump) to the right lateral ventricle under isoflurane anesthesia. C-CDNF (1.5 μg/24 h) was infused for 28 days. Motor behavior was evaluated with rotarod. Mice were evaluated for clinical signs and body weight changes.
Clinical scoring for SOD1 mice was done using instructions from Jackson laboratory. The mice were carefully examined 2 times a week after they were 12 weeks old. Animals were scored by lifting them gently by the base of their tails and observing them for tremors, stiffness and their ability to extend their limbs. The clinical scoring is on a scale of 1 to 5, based on ALSTDI (ALS therapy Development Institute) hind limb neurological scoring system.
In rotarod, mice were put to a rotating rod (accelerating speed 4-40 rpm/minute), (Ugo Basile, Italy). Cut off time was 4 minutes. Rotarod test was done 2 times a week after the mice were 12 weeks old.

[2] = system: rat model of cerebral ischemia; test: Distal occlusion of the middle cerebral artery as a model of cerebral stroke; assay type: in vivo
Procedure: Male Sprague Dawley rats (weight 230-270 g, Envigo, Netherlands) were used for the experiments which were conducted according to the 3R principles of EU directive 2010/63/EU on the care and use of experimental animals, local laws and regulations, and were approved by the national Animal Experiment Board of Finland All experiments were performed in a blinded manner and the rats were assigned to different treatment groups randomly. Rats were anesthesized with chloral hydrate (0.4 g/kg, i.p). A cortical stroke was induced by occluding the distal middle cerebral artery (dMCA) together with a bilateral common carotid artery (CCA) occlusion for 60 min as described previously (Chen, et al., 1986). Briefly, the bilateral CCAs were identified and isolated through a ventral midline cervical incision. Rats were placed in stereotaxic apparatus and a craniotomy was made in the right hemisphere. The right (MCA) was ligated with a 10-0 suture and bilateral common carotids (CCA) were ligated with non-traumatic arterial clamps for 60 minutes. […]
To test the neuroprotective effect of subcutaneous C-CDNF, 50 μg of C-CDNF was given 30-50 min before dMCA occlusion and immediately after reperfusion in volume of 100 μl s.c. Phosphate-buffered saline (PBS) was used as vehicle control. […] The area of infarction in each slice was measured with a digital scanner and ImageJ software. […]

B1: KYEKTLDLASVDLRKMRVAELKQILHSWGEECRACAEKTDYVNLIQELAPKYAATHPKTEL (peptide, listed as Homo sapiens)
chain: KYEKTLDLASVDLRKMRVAELKQILHSWGEECRACAEKTDYVNLIQELAPKYAATHPKTEL
motor coordination (rotarod performance) ([1]; 4-week chronic intracerebroventricular infusion 1.5 μg/24 h, significant week 13 until week 19, p<0.01): improves motor coordination
relative changes in body weight ([1]; 4-week chronic intracerebroventricular infusion 1.5 μg/24 h, weeks 18 and 19, p<0.05 vs PBS): Significant differences
motor behavior (rotarod, latency to fall) ([1]; single intracerebroventricular injection 3.75 μg at 13 weeks, SOD1-G93A females, vs PBS): improves the motor behavior
clinical score ([1]; single intracerebroventricular injection 3.75 μg at the age of 13 weeks, female animals, vs PBS): statistically significantly better clinical scores
infarction volume (rostral part of the cerebral cortex) ([2]; 50 μg s.c. 30-50 minutes before dMCA occlusion and right after reperfusion, p<0.05 vs PBS): decreases
smaller lesions than the vehicle treated rats ([2]; 50 μg s.c. before dMCA occlusion and right after reperfusion, n=8-9): about 50%
